Where two headings read alike, the source gives them in different places.
What was measured:
human PILRA G78 on cells [1] = target: T1, human PILRA G78 on cells (human, UniProt Q9UKJ1 20-303); assay: cell-based or functional assay
[2] = target: T2, human PILRB extracellular domain (recombinant) (human, UniProt Q9UKJ0 20-191); assay: SPR, Biacore 8K, recombinant ECD
T2 construct: also called hPILRB
Procedure: (§1) Antibodies were captured on Biacore™ Series S CM5 sensor chips immobilized with mouse anti-human Fab (human Fab capture kit from GE Healthcare) followed by injections of serial 3-fold dilutions of recombinant ECD reagents at a flow rate of 30 μL/min. Each sample was analyzed using a 3-minute association followed by a 10-minute dissociation. After each injection, the sensor chip was regenerated using a 5 0 mM glycine pH2.0 regeneration buffer. A 1:1 Languir model of simultaneous fitting of kₒₙ and koff was used for kinetics analysis.

[3] = target: T3, cynomolgus monkey PILRA extracellular domain (recombinant) (cynomolgus monkey); assay: SPR, Biacore 8K, recombinant ECD
T3 construct: also called cynoPILRA; Cyno PILRA
Procedure: as §1

human PILRA G78 on cells [4] = target: T1, human PILRA G78 on cells; assay: flow cytometry on HEK293 cells expressing hPILRA G78
Procedure: Parental HEK293 cells were labeled with NucBlue Live ReadyProbes Reagent for 30 mins. […] Antibody binding to the cells was detected by FACS and median fluorescence intensity (MFI) was derived from data analysis performed with the FLOJO software (FIGS. 1A-1C).

[5] = target: T4, human PILRA G78 extracellular domain (recombinant hPILRA ECD) (human, UniProt Q9UKJ1 20-197); assay: SPR, Biacore 8K; antibody captured via anti-human Fab, recombinant ECD injected; 1:1 fit;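 also: CM5 sensor chip, ECD analyte in threefold dilution series at 30 µL/min, 3 min association and 10 min dissociation, kon and koff fitted simultaneously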
T4 construct: also called hPILRA G78
Procedure: as §1

[6] = target: T2, human PILRB extracellular domain …; assay: SPR
[7] = target: T4, human PILRA G78 extracellular domain …; assay: SPR
[8] = target: T5, human PILRA R78 extracellular domain (recombinant) (human, UniProt Q9UKJ1 20-197); assay: SPR
T5 construct: also called hPILRA R78

[9] = target: T2, human PILRB extracellular domain …; assay: SPR; remark: listed apart in the source
[10] = target: T3, cynomolgus monkey PILRA extracellular …; assay: SPR
human PILRA G78 on cells [11] = target: T1, human PILRA G78 on cells; assay: cell-based or functional assay; remark: listed apart in the source
human PILRA R78 on cells [12] = target: T6, human PILRA R78 on cells (human, UniProt Q9UKJ1 20-303); assay: cell-based or functional assay
human PILRA G78 on cells [13] = target: T1, human PILRA G78 on cells; assay: flow cytometry on HEK293 cells expressing hPILRA G78; remark: listed apart in the source
[14] = target: T4, human PILRA G78 extracellular domain …; assay: SPR, Biacore 8K; hPILRA ECD; antibody with wild-type Fc
Procedure: as §1
Characterization for binding affinities of the humanized antibodies to hPILRA ECD were measured by SPR using a Biacore 8K instrument (Table 7).

human PILRA G78 on cells [15] = target: T1, human PILRA G78 on cells; assay: flow cytometry on PILRA G78 expressing CHO-K1 cells (FIG. 1H)
Procedure: (§2) PILRA G78 or R78 overexpressing HEK293 cells were stained with NucBlue Live cell stain for 30 mins at RT. […] Cell lines were run in duplicate to account for intra-variability, for a total of N=3. The same protocol was used for CHO-K1 cells expressing hPILRA G78.

human PILRA R78 on cells [16] = target: T6, human PILRA R78 on cells; assay: flow cytometry on PILRA R78 expressing HEK293 cells (FIG. 1F); HEK293 cells expressing PILRA R78
Procedure: as §2

[17] = target: T3, cynomolgus monkey PILRA extracellular …; assay: SPR, Biacore 8K; antibody captured via anti-human Fab, recombinant ECD injected; 1:1 fit;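 also: CM5 sensor chip, ECD analyte in threefold dilution series at 30 µL/min, 3 min association and 10 min dissociation, kon and koff fitted simultaneously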
Procedure: as §1

human PILRB on cells = target: T7, human PILRB on cells (human, UniProt Q9UKJ0 20-227); assay: flow cytometry (MFI), CHO-K1 cells expressing hPILRB
T7 construct: Expressed on CHO-K1 cells, or together with DAP12 on HEK293 cells (hPILRB-DAP12 OE HEK293); also called hPILRB; hPILRB-DAP12
Procedure: Antibody binding to the cells was detected by FACS and MFI was derived from data analysis performed with the FLOJO software.

human PILRA G78 on cells [18] = target: T1, human PILRA G78 on cells; assay: flow cytometry on HEK293 PILRA G78 cells with sialidase treatment
Procedure: (§3) PILRA 78G or PILRA 78R expressing HEK293 cells were treated with SialEXO (Genovis). […] It is a combination of two sialidases acting on α2-3, α2-6 and α2-8 linkages. […] Cells were then washed twice and incubated and stained with NucBlue Live Stain for 30 mins at RT.

human PILRA G78 on cells [19] = target: T1, human PILRA G78 on cells; assay: flow cytometry on HEK293 PILRA G78 cells without sialidase treatment
Procedure: as §3

human PILRA R78 on cells [20] = target: T6, human PILRA R78 on cells; assay: flow cytometry on HEK293 PILRA R78 cells with sialidase treatment; with sialidase treatment
Procedure: as §3
(§4) Following the same protocol, sialidase treatment was also performed on HEK cells expressing PILRA R78.

human PILRA R78 on cells [21] = target: T6, human PILRA R78 on cells; assay: flow cytometry on HEK293 PILRA R78 cells without sialidase treatment; without sialidase treatment
Procedure: as §3, §4

T3 sequence (chain, as listed by the source limits assumed): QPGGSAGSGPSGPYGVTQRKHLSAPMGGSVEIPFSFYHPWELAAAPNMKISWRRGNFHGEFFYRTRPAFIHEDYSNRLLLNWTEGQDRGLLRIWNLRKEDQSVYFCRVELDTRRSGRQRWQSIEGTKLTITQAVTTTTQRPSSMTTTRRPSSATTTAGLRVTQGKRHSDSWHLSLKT
T1 sequence (Q9UKJ1 20-303 R78G limits assumed): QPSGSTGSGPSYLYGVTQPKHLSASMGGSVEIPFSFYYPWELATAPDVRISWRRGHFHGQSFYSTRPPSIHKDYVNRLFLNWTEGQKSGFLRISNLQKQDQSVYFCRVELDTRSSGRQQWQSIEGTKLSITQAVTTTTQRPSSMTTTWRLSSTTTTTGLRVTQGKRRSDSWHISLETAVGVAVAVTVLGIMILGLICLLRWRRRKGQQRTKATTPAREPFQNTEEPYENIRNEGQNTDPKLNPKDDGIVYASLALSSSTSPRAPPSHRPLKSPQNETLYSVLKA
T4 sequence (Q9UKJ1 20-197 R78G limits assumed): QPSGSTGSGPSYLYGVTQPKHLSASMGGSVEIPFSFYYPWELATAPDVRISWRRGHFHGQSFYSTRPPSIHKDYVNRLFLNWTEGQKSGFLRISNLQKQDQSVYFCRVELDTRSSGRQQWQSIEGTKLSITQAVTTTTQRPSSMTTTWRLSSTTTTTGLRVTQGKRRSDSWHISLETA
T2 sequence (Q9UKJ0 20-191 limits assumed): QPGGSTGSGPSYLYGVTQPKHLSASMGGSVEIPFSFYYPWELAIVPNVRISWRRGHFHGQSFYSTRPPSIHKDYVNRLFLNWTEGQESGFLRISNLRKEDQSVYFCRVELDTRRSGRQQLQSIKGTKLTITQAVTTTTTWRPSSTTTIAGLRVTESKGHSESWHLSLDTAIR
T6 sequence (Q9UKJ1 20-303 limits assumed): as the sequence (Q9UKJ1 20-303 R78G limits assumed) above, with G59R counted along it
T5 sequence (Q9UKJ1 20-197 limits assumed): as the sequence (Q9UKJ1 20-197 R78G limits assumed) above, with G59R counted along it
T7 sequence (Q9UKJ0 20-227 limits assumed): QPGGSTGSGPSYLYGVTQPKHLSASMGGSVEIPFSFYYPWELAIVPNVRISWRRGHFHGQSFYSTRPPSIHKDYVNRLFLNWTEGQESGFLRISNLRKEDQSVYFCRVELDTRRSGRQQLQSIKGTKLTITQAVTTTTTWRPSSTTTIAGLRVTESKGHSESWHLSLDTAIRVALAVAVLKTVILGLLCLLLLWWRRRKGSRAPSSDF

B1: Anti-PILRA antibody clone 9 (antibody, V domains shown)
VH: QVQLQESGPGLVKPSGTLSLTCAVSGGSISSNNWWSWVRQPPGKGLEWIGEIYHFGTTTYNPSLKSRVTISVDKSKNQFSLKLSSLTAADTAVYYCARTLRDFYYYMDVWGKGTTVTVSS
VL: DIHMTQSPSSLSASVGDRVTITCRTSQNINTYLNWYQQRPGRAPKLLIYAASSLQSGVPSRFSGSGSGTDFILSISSLQPEDFATYYCQQSFNIPLTFGGGTKVEIK
notes: also called Ab; Clone 9
pSTAT3 Y705 induction, EC50 (nM) (human PILRA G78 on cells [1]): 5.93 nM
pSTAT3 Y705 induction, Fold Over Background (human PILRA G78 on cells [1]): 16.9 fold
binding result [2]: no binding
binding result [3]: no binding
EC50 (human PILRA G78 on cells [4]): 1.28 nM
Kd [5]: 1.6 nM

B2: Anti-PILRA antibody clone 36 (antibody, V domains shown)
VH: EVQLVQSGAEVKKPGASVKVSCKASGYTFTEYYMYWVRQAPGQGLELIGRIDPEDGGTDYIEKFKNRVTLTADTSTSTAYLELSSLRSEDTAVYYCATTIRGTVFAFWGQGTLVTVSS
VL: DIQMTQSPSSLSASVGDRVTITCRPSEDIYNGLAWYQQKPGKAPKLLIYNANSLHTGVPSRFSGSGSGTDYTLTISSLQPEDFATYFCQQYYDYPLTFGQGTKVEIK
notes: Humanized
Kd [6]: 42 to 97 nM

B3: Anti-PILRA antibody clone 15 (antibody, V domains shown)
VH: EVQLVQSGAEVKKPGASVKVSCKASGYTFTEYYMYWVRQAPGQGLELIGRIDPEDGGTDYIEKFKNRSTLTADTSTSTAYLELSSLRSEDTAVYFCATTIRGTVFAFWGQGTLVTVSS
VL: DIQMTQSPSSLSASVGDRVTITCRASEDIFNGLAWYQQKPGKSPKLLIYNAKTLHTGVPSRFSGSGSGSDYTLTISSLQPEDFATYFCQQYYDYPLTFGQGTKVEIK
notes: Humanized; also called Ab.15
Kd [7]: 0.65 nM
Kd [8]: 10 nM
Kd [9]: 95 nM
Kd [10]: 0.72 nM
pSTAT3 S727 induction, EC50 (nM) (human PILRA G78 on cells [11]): 17.5 nM
pSTAT3 S727 induction, Fold Over Background (human PILRA G78 on cells [11]): 32.2 fold
pSTAT3 Y705 induction, EC50 (nM) (human PILRA G78 on cells [11]): 16.9 nM
pSTAT3 Y705 induction, Fold Over Background (human PILRA G78 on cells [11]): 33.5 fold
pSTAT3 S727 induction, EC50 (nM) (human PILRA R78 on cells [12]): 12.7 nM
pSTAT3 S727 induction, Fold Over Background (human PILRA R78 on cells [12]): 24.8 fold
pSTAT3 Y705 induction, EC50 (nM) (human PILRA R78 on cells [12]): 5.66 nM
pSTAT3 Y705 induction, Fold Over Background (human PILRA R78 on cells [12]): 38.2 fold
EC50 (human PILRA G78 on cells [13]): 11.2 nM
Kd [14]: 0.917 nM
EC50 (human PILRA G78 on cells [15]): 9 nM
EC50 (human PILRA R78 on cells [16]): 2.7 nM

B4: Anti-PILRA antibody clone 23 (antibody, V domains shown)
VH: EVQLVQSGAEVKKPGASVKVSCKASGYTFTEYYMYWVRQAPGQGLELIGRIDPEDGGTDYVEKFKNRATLTADTSTSTAYLELSSLRSEDTAVYFCASTIRGTVFVYWGQGTLVTVSS
VL: DIQMTQSPSSLSASVGDRVTITCRPSEDIYNGLAWYQQKPGKAPKLLIYNANSLHTGVPSRFSGSGSGTDYTLTISSLQPEDFATYYCQQYYDYPLTFGQGTKVEIK
notes: Humanized; also called Ab.23
Kd [7]: 2.8 nM
Kd [8]: 47 nM
Kd [9]: 117 nM
Kd [10]: 7.3 nM
pSTAT3 S727 induction, EC50 (nM) (human PILRA G78 on cells [11]): 20.1 nM
pSTAT3 S727 induction, Fold Over Background (human PILRA G78 on cells [11]): 23.6 fold
pSTAT3 Y705 induction, EC50 (nM) (human PILRA G78 on cells [11]): 12.2 nM
pSTAT3 Y705 induction, Fold Over Background (human PILRA G78 on cells [11]): 31.4 fold
pSTAT3 S727 induction, EC50 (nM) (human PILRA R78 on cells [12]): 14.6 nM
pSTAT3 S727 induction, Fold Over Background (human PILRA R78 on cells [12]): 28.5 fold
pSTAT3 Y705 induction, EC50 (nM) (human PILRA R78 on cells [12]): 7.55 nM
pSTAT3 Y705 induction, Fold Over Background (human PILRA R78 on cells [12]): 36.2 fold
EC50 (human PILRA G78 on cells [13]): 21.4 nM
Kd [14]: 0.495 nM
EC50 (human PILRA G78 on cells [15]): 18.2 nM
EC50 (human PILRA R78 on cells [16]): 3.7 nM

B5: Anti-PILRA antibody clone 37 (antibody, V domains shown)
VH: EVQLVQSGAEVKKPGASVKVSCKASGYTFTEYYMYWVRQAPGQGLELIGRIDPEDGGTDYIEKFKNRVTLTADTSTSTAYLELSSLRSEDTAVYYCATTIRGTVFAFWGQGTLVTVSS
VL: DIQMTQSPSSLSASVGDRVTITCRASEDIFNGLAWYQQKPGKSPKLLIYNAKTLHTGVPSRFSGSGSGTDYTLTISSLQPEDFATYYCQQYYDYPLTFGQGTKVEIK
notes: Humanized
Kd [6]: 100 to 150 nM

B6: Anti-PILRA antibody clone 10 (antibody, V domains shown)
VH: EVQLVQSGAEIRKPGESLKISCKGSGYSFTTYWIAWVRQMPGKGLEWMGIIYPGDSDTRYSPSFQGQVTISADKSITTAYLQWSSLKASDTGIYYCARTYYYFSGSHWDAFDIWGQGTMVTVSS
VL: DIQMTQSPSSVSAYVGDRVTITCRASQDIRDCLAWYQQKPGKAPKFLIYAASSFQSGVPSGFSGSGSGTDFTLTVTSLQPEDSATYYCQQTHSFPYTFGQGTKLEIK
notes: also called Ab; Clone 10
pSTAT3 Y705 induction, EC50 (nM) (human PILRA G78 on cells [1]): 5.69 nM
pSTAT3 Y705 induction, Fold Over Background (human PILRA G78 on cells [1]): 26.7 fold
binding result [2]: no binding
binding result [3]: no binding
EC50 (human PILRA G78 on cells [4]): 1.28 nM
Kd [5]: 61 nM

B7: Anti-PILRA antibody clone 11 (antibody, V domains shown)
VH: EVKLVESGGGLVRPGGSQKLSCAVSGFAFSGYDMSWVRQTPEKRLEWVATISNGGRHTYYPDSVKGRFTISRDNARNTLYLQMSSLRSEDTALYYCARQKTWDVHAMDYWGQGTSVTVSS
VL: QLVLTQSSSASFSLGASAKLTCTLSSQHSTYTIEWYQQQPLKPPKYVMELKKDGSHSTGDGIPDRFSGSSSGADRYLSISNIQPEDEAIYICGVGDTIKEQFVYVFGGGTKVTVL
pSTAT3 Y705 induction, Fold Over Background (human PILRA G78 on cells [1]): 1.42 fold
binding result [2]: no binding
EC50 (human PILRA G78 on cells [4]): 10.5 nM
Kd [5]: 140 nM
Kd [17]: 110 nM

B8: Anti-PILRA antibody clone 5 (antibody, human IgG1, kappa, L234A L235A, V domains shown)
VH: QVQLVQSGAEVKKPGASVRVSCKASGYTFIGFYIHWVRQAPGQGLEWMGWINPESGDTTYAQKFQGRVTMTTDTSINTAYMDLNRLRSDDSAVYFCARGNWNFPDTFDFWGQGTMVIVSS
VL: DIQMTQSPSSLSASVGDRVTITCRSSQSISIYLNWHQQIPGKAPKLLIYVASSLQSGIPSRFSGRGSGTEFTLTISSLQPEDFATYYCQQSYSAPFTFGPGTKVDIKR
notes: also called Ab; Clone 5; Ab.5
pSTAT3 Y705 induction, EC50 (nM) (human PILRA G78 on cells [1]): 1.51 nM
pSTAT3 Y705 induction, Fold Over Background (human PILRA G78 on cells [1]): 15.8 fold
binding result [2]: no binding
EC50 (human PILRA G78 on cells [4]): 32.5 nM
binding result (human PILRB on cells): no binding (tested: 100 nM)
EC50 (human PILRA G78 on cells [18]): 9.8 nM
EC50 (human PILRA G78 on cells [19]): 17 nM
EC50 (human PILRA R78 on cells [20]): 0.9 nM
Kd [5]: 0.66 nM
Kd [17]: 19 nM
EC50 (human PILRA R78 on cells [21]): 1.3 nM

B9: Anti-PILRA antibody clone 8 (antibody, V domains shown)
VH: QVQLVQSGAEVKKPGASVKVSCKASGYTFTGHYMHWVRQAPGQGLEWMGWINPNSGDTDYAQKFQGRVTMTRDTSISTAYMDLNRLRSDDTAVFYCAREGLDGDPFDYWGQGTLVTVSS
VL: EIMLTQTPLSSPVTLGQPASISCRSSQSLVHSDGNTYLSWLQQRPGQPPRLLIYNISNRFSGVPDRFSGRGAGTDFTLKISRVEAEDVGVYYCIQTTQFSTFGQGTKLEIK
binding result [2]: no binding
EC50 (human PILRA G78 on cells [4]): 536 nM
Kd [5]: 11 nM
Kd [17]: 59 nM

B10: Anti-PILRA antibody clone 4 (antibody, human IgG1, kappa, L234A L235A, V domains shown)
VH: EVQLVESGGGLVQPGRSLRLSCAASGFTFDDYAIHWVRQAPGKGLEWVSGMSWNSGSIGYGDSVKGRFTISRDNAKNSLYLQMNSLRAEDTAFYYCAKDKSIGAAGRFDSWGQGTLVTVSS
VL: not shown
notes: also called Ab; Clone 4; Ab.4
pSTAT3 Y705 induction, EC50 (nM) (human PILRA G78 on cells [1]): 1.98 nM
pSTAT3 Y705 induction, Fold Over Background (human PILRA G78 on cells [1]): 14.7 fold
binding result [2]: no binding
EC50 (human PILRA G78 on cells [4]): 24.9 nM
binding result (human PILRB on cells): no binding (tested: 100 nM)
Kd [5]: 8.3 nM
Kd [17]: 7.4 nM

B11: Anti-PILRA antibody clone 3 (antibody, V domains shown)
VH: EVQLVESGGGLVQPGRSLRLSCAASGFTFDDYAIHWVRQAPGKGLEWVSGMSWNSGSIGYGDSVKGRFTISRDNAKNSLYLQMNSLRAEDTAFYYCAKDKSIGAAGRFDCWGQGTLVTVSS
VL: not shown
binding result [2]: no binding
EC50 (human PILRA G78 on cells [4]): 14.1 nM
Kd [5]: 1.7 nM
Kd [17]: 3 nM

— US20260109763A1 (DENALI THERAPEUTICS, published 2026)
